Assay results: PMC4404499 (The Biochemical journal, 2014)

Columns and labels:
Experiment in all cases: pull-down
GST-tagged TRIM3 N48A = target: T1, GST-tagged TRIM3 N48A (mouse, UniProt Q9R1R2 1-744, N48A)
T1 sequence (looked up): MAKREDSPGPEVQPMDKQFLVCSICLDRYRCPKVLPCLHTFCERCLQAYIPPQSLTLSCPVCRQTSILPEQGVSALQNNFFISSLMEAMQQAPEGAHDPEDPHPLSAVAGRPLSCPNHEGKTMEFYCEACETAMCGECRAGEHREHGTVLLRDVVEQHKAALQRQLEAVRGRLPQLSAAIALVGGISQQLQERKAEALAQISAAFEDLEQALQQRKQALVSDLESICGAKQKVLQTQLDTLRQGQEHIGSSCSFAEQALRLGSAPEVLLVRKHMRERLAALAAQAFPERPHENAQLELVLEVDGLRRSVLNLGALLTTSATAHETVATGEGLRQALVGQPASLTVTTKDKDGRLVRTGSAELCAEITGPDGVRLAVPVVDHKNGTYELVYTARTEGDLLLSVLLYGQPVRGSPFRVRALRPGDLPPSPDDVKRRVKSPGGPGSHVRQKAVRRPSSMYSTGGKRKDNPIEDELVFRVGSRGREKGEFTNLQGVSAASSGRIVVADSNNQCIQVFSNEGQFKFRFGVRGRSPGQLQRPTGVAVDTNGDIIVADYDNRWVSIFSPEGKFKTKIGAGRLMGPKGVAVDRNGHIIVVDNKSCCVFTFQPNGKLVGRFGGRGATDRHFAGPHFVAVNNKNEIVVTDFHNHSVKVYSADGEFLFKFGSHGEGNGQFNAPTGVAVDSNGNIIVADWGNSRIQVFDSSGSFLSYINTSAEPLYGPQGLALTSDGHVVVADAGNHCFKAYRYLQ

GST-tagged TRIM3 Y49A = target: T2, GST-tagged TRIM3 Y49A (mouse, UniProt Q9R1R2 1-744, Y49A)
T2 sequence (looked up): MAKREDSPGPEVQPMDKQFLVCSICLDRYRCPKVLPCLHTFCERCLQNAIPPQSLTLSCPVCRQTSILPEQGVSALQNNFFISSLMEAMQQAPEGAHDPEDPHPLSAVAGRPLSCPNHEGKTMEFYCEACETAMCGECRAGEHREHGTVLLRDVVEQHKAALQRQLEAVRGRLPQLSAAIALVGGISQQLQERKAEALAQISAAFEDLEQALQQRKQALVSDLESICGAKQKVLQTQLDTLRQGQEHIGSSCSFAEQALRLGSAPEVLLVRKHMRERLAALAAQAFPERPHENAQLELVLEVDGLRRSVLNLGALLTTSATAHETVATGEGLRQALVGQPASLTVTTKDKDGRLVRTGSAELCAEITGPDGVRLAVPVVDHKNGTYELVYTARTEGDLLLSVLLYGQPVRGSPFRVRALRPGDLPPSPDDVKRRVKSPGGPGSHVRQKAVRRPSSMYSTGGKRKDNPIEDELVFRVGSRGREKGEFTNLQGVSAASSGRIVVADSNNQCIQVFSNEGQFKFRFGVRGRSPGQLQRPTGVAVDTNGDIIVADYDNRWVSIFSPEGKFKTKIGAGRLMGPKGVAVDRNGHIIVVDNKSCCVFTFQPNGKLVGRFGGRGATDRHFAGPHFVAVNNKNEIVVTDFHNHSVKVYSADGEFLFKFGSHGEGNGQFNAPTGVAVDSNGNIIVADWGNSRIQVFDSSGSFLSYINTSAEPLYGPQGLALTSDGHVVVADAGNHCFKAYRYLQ

GST-tagged TRIM3 L55A = target: T3, GST-tagged TRIM3 L55A (mouse, UniProt Q9R1R2 1-744, L55A)
T3 sequence (looked up): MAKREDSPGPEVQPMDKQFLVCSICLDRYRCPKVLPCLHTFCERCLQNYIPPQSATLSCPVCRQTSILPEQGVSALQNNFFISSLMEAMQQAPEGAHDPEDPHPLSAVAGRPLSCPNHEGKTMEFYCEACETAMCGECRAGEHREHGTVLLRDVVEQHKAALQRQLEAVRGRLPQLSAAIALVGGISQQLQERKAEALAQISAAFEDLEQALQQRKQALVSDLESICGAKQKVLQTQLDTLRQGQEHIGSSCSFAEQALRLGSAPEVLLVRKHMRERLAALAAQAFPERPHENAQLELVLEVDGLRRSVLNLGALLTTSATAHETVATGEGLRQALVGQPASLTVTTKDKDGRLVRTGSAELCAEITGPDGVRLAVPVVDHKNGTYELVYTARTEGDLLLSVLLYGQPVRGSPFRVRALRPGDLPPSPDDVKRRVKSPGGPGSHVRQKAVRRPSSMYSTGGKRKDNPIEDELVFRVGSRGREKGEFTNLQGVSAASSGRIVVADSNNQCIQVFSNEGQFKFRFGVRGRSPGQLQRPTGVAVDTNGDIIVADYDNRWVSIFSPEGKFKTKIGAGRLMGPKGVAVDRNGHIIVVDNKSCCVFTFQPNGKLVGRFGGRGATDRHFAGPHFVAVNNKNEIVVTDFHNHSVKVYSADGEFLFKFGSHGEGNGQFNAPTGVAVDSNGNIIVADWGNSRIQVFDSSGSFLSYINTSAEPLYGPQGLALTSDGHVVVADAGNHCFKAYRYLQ

GST-tagged TRIM3 I50A = target: T4, GST-tagged TRIM3 I50A (mouse, UniProt Q9R1R2 1-744, I50A)
T4 sequence (looked up): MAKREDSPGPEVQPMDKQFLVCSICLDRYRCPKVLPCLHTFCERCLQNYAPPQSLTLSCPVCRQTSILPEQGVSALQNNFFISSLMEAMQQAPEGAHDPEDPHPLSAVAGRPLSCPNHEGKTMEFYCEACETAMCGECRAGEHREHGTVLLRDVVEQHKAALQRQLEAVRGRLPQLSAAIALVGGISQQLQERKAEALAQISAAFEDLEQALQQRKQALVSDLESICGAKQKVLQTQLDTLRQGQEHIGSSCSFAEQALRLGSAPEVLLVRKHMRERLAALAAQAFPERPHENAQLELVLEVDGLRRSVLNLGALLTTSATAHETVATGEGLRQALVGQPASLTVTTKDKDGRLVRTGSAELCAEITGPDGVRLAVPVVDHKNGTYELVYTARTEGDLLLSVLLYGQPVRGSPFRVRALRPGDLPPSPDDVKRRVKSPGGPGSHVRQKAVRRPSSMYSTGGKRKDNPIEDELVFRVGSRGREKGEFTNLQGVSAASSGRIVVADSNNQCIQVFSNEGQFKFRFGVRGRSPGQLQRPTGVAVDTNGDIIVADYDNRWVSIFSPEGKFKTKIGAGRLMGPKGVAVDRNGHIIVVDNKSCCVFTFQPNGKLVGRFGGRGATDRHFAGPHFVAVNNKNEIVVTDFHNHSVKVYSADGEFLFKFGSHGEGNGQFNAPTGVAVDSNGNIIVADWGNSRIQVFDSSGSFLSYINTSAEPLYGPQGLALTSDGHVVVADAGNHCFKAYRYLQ

Measured: binding result

B1: His-tagged p21 (wild-type) (natural protein, UniProt P39689 1-159, looked up)
chain: MSNPGDVRPVPHRSKVCRCLFGPVDSEQLRRDCDALMAGCLQEARERWNFDFVTETPLEGNFVWERVRSLGLPKVYLSPGSRSRDDLGGDKRPSTSSALLQGPAPEDHVALSLSCTLVSERPEDSPGGPGTSQGRKRRQTSLTDFYHSKRRLVFCKRKP
binds: GST-tagged TRIM3 N48A | GST-tagged TRIM3 Y49A | GST-tagged TRIM3 L55A | GST-tagged TRIM3 I50A
